Source: US20240209076A1 (KODIAK SCIENCES, published 2024)
Positions count from the first letter of the chain named. Names may count otherwise. Blank lines part the entries; values can stand above or below the binder they belong to.

Biological target: human IL-6 (human, UniProt P05231 30-212)
Test: SPR Biacore, supernatant, Protein A capture, 37 C
Procedure: Those four positions were selected based on their tolerance for mutations as observed in bacterial and mammalian screens. […] These cultures were centrifuged and supernatants containing secreted antibodies were harvested and diluted in HBS-EP+ running buffer (1:20 ratio).
Antibodies were captured on a Protein A chip (GE) by injecting 1:20 cell supernatant dilutions at 10 μL/min for 60 seconds. […] The sensor chip was regenerated by a 60 seconds injection of 10 mM Glycine pH 1.7 at the flow rate of 50 μL/min. […] For this setup, 1 μg/mL of purified antibody was injected over a Protein A chip at 10 μL/min for 25 seconds. […] The sensor chip was regenerated by a 60 seconds injection of 10 mM Glycine pH 1.7 at flow rate of 50 μL/min. Data analysis for supernatant and purified samples were performed using BIAevaluation software (GE). All sensorgrams were double reference subtracted and fit using a 1:1 Langmuir binding model.

human IL-6, sequence (P05231 30-212 limits assumed): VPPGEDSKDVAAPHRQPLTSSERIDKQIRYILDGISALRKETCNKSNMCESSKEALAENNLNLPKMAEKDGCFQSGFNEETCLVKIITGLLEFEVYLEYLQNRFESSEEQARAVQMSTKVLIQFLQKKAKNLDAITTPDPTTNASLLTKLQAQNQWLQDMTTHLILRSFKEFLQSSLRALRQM

- Kd: 11.4 nM
- koff: 0.00161 s⁻¹
- kon: 141000 M⁻¹ s⁻¹
B1: Anti-IL-6 antibody, heavy chain S35H, G66D, Q99R / light chain WT (antibody, IgG1, V domains shown)
VH: EVQLVESGGGLVQPGGSLRLSCAASGFTFSPFAMHWVRQAPGKGLEWVAKISPGGSWTYYSDTVTDRFTFSLDTSKSTAYLQMNSLRAEDTAVYYCARRLWGYYALDIWGQGTLVTVSS
VL: DIQLTQSPSSLSASVGDRVTITCSASISVSYMYWYQQKPGKAPKLLIYDMSNLASGVPSRFSGSGSGTDFTLTISSLQPEDFATYYCMQWSGYPYTFGQGTKVEIK
notes: IgG1; variable domains only

- Kd: 1.98 nM
- koff: 0.00124 s⁻¹
- kon: 625000 M⁻¹ s⁻¹
B2: Anti-IL-6 antibody, heavy chain S35H, G66D, L100W / light chain M32L, M50D, N52S, M88Q (antibody, IgG1, V domains shown)
VH: B1 VH with R99Q, L100W
VL: B1 VL with M32L, M50D, N52S, M88Q
notes: IgG1; variable domains only; VL is variant III

- Kd: 2.34 nM
- koff: 0.00302 s⁻¹
- kon: 1.29e+06 M⁻¹ s⁻¹
B3: Anti-IL-6 antibody, heavy chain S35H, G66D, Q99D / light chain WT (antibody, IgG1, V domains shown)
VH: B1 VH with R99D
VL: B1 VL
notes: IgG1; variable domains only

- Kd: 0.244 nM
- koff: 0.000262 s⁻¹
- kon: 1.07e+06 M⁻¹ s⁻¹
B4: Anti-IL-6 antibody, heavy chain S35H, G66D, Q99L / light chain WT (antibody, IgG1, V domains shown)
VH: B1 VH with R99L
VL: B1 VL
notes: IgG1; variable domains only

- Kd: 3.86 nM
- koff: 0.00335 s⁻¹
- kon: 868000 M⁻¹ s⁻¹
B5: Anti-IL-6 antibody, heavy chain S35H, G66D, Q99I / light chain WT (antibody, IgG1, V domains shown)
VH: B1 VH with R99I
VL: B1 VL
notes: IgG1; variable domains only

- Kd: 4.71 nM
- koff: 0.00089 s⁻¹
- kon: 189000 M⁻¹ s⁻¹
B6: Anti-IL-6 antibody, heavy chain S35H, G66D, Q99E / light chain M32L, M50D, N52S, M88Q (antibody, IgG1, V domains shown)
VH: B1 VH with R99E
VL: B1 VL with M32L, M50D, N52S, M88Q
notes: as for B2

- Kd: 3.91 nM
- koff: 0.00193 s⁻¹
- kon: 493000 M⁻¹ s⁻¹
B7: Anti-IL-6 antibody, heavy chain S35H, G66D, Q99E / light chain WT (antibody, IgG1, V domains shown)
VH: B1 VH with R99E
VL: B1 VL
notes: IgG1; variable domains only

- Kd: 0.638 nM
- koff: 0.000642 s⁻¹
- kon: 1.01e+06 M⁻¹ s⁻¹
B8: Anti-IL-6 antibody, heavy chain S35H, G66D, L100Y / light chain WT (antibody, IgG1, V domains shown)
VH: B1 VH with R99Q, L100Y
VL: B1 VL
notes: IgG1; variable domains only

- Kd: 3.39 nM
- koff: 0.00166 s⁻¹
- kon: 489000 M⁻¹ s⁻¹
B9: Anti-IL-6 antibody, heavy chain S35H, G66D, Q99F / light chain WT (antibody, IgG1, V domains shown)
VH: B1 VH with R99F
VL: B1 VL
notes: IgG1; variable domains only

- Kd: 0.717 nM
- koff: 0.00132 s⁻¹
- kon: 1.85e+06 M⁻¹ s⁻¹
B10: Anti-IL-6 antibody, heavy chain S35H, G66D, Q99A / light chain WT (antibody, IgG1, V domains shown)
VH: B1 VH with R99A
VL: B1 VL
notes: IgG1; variable domains only

- Kd: 7.66 nM
- koff: 0.00154 s⁻¹
- kon: 201000 M⁻¹ s⁻¹
B11: Anti-IL-6 antibody, heavy chain S35H, G66D, Q99S / light chain M32L, M50D, N52S, M88Q (antibody, IgG1, V domains shown)
VH: B1 VH with R99S
VL: B1 VL with M32L, M50D, N52S, M88Q
notes: as for B2

- Kd: 3.61 nM
B12: Anti-IL-6 antibody, heavy chain S35H, G66D, Q99D / light chain M32L, M50D, N52S, M88Q (antibody, IgG1, V domains shown)
VH: B1 VH with R99D
VL: B1 VL with M32L, M50D, N52S, M88Q
notes: as for B2

- Kd: 0.961 nM
- koff: 0.0033 s⁻¹
- kon: 3.43e+06 M⁻¹ s⁻¹
B13: Anti-IL-6 antibody, heavy chain S35H, G66D, Q99G / light chain WT (antibody, IgG1, V domains shown)
VH: B1 VH with R99G
VL: B1 VL
notes: IgG1; variable domains only

- Kd: 1.31 nM
- koff: 0.00222 s⁻¹
- kon: 1.69e+06 M⁻¹ s⁻¹
B14: Anti-IL-6 antibody, heavy chain S35H, G66D, Q99T / light chain WT (antibody, IgG1, V domains shown)
VH: B1 VH with R99T
VL: B1 VL
notes: IgG1; variable domains only

- Kd: 0.686 nM
- koff: 0.000631 s⁻¹
- kon: 920000 M⁻¹ s⁻¹
B15: Anti-IL-6 antibody, heavy chain WT / light chain M32L, M50D, N52S, M88Q (antibody, IgG1, V domains shown)
VH: B1 VH with H35S, D66G, R99Q
VL: B1 VL with M32L, M50D, N52S, M88Q
notes: as for B2

- Kd: 0.368 nM
- koff: 0.00146 s⁻¹
- kon: 3.97e+06 M⁻¹ s⁻¹
B16: Anti-IL-6 antibody, heavy chain S35H, G66D, Q99K / light chain M32L, M50D, N52S, M88Q (antibody, IgG1, V domains shown)
VH: B1 VH with R99K
VL: B1 VL with M32L, M50D, N52S, M88Q
notes: as for B2

- Kd: 0.244 nM
- koff: 0.000579 s⁻¹
- kon: 2.37e+06 M⁻¹ s⁻¹
B17: Anti-IL-6 antibody, heavy chain S35H, G66D, L100V / light chain WT (antibody, IgG1, V domains shown)
VH: B1 VH with R99Q, L100V
VL: B1 VL
notes: IgG1; variable domains only

- Kd: 15.1 nM
- koff: 0.00333 s⁻¹
- kon: 220000 M⁻¹ s⁻¹
B18: Anti-IL-6 antibody, heavy chain S35H, G66D, Q99K / light chain WT (antibody, IgG1, V domains shown)
VH: B1 VH with R99K
VL: B1 VL
notes: IgG1; variable domains only
